From patent US20250345451A1

Key:
[1] = target: biotinylated human PD-L1 protein (purchased from AcroBiosystems) (human) (UniProt Q9NZQ7); test: blocking assay by flow cytometry: PD-L1 protein pre-incubated with the sample, binding to human PD-1 on CHO-hPD-1 cells
[2] = target: human PD-L1 on CHO-hPD-L1 cells (human) (UniProt Q9NZQ7); test: flow cytometry on CHO cells overexpressing human PD-L1, median fluorescence intensity PE-A
[3] = target: Human TGF-β1 (acrobiosystems, TG1-H421) (human) (UniProt P01137)
Human TGF-β1 (acrobiosystems, TG1-H421) (human), sequence (P01137 279-390 limits assumed): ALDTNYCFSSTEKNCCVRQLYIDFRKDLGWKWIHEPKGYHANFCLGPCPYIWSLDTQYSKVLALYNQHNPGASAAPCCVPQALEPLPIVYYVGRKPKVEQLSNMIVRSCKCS

[4] = target: Human TGF-β1 (acrobiosystems, TG1-H421) (human) (UniProt P01137); test: ELISA on coated human TGF-β1, anti-human Fc-HRP, absorbance at 450 nm (top panel)
[5] = target: Human TGF-β3 (PeproTech, 100-36E) (human) (UniProt P10600); test: ELISA on coated human TGF-β3, anti-human Fc-HRP, absorbance at 450 nm (bottom panel)
Human TGF-β3 (PeproTech, 100-36E) (human), sequence (P10600 301-412 limits assumed): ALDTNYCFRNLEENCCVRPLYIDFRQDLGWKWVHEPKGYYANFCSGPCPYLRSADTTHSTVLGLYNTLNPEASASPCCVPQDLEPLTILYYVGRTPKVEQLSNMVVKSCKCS

[6] = target: human PD-L1 on CHO-hPD-L1 cells (human) (UniProt Q9NZQ7); test: flow cytometry on CHO-hPD-L1 cells, PE anti-human IgG-Fc; table under the lower panel prints no unit, concentration axis is in nM

human PD-L1 on CHO-hPD-L1 cells (human), sequence (Q9NZQ7 19-290): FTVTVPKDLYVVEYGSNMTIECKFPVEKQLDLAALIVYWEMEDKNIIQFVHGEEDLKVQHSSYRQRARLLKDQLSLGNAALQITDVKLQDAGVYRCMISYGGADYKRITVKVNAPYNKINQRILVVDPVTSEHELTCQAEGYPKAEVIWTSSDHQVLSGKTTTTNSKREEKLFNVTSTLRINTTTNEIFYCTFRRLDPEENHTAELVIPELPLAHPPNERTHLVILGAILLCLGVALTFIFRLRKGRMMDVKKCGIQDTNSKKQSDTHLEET
biotinylated human PD-L1 protein (purchased from AcroBiosystems) (human), sequence (Q9NZQ7 19-238 limits assumed): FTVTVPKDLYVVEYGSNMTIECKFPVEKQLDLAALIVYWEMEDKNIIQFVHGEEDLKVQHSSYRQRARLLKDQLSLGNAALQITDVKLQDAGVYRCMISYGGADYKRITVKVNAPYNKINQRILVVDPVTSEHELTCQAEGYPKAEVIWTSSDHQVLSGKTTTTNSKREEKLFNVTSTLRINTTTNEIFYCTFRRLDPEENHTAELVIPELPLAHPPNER

Row | IC50 (read off the curve) [1] | EC50 (read off the curve) [2] | IC50 (read off the curve) [3] | EC50 (read off the curve) [4] | EC50 (read off the curve) [5] | EC50 [6] | Substance
1 | 4 nM | 3 nM | 0.3 nM | 1 nM | 0.6 nM |  | M7824
2 |  |  | 0.4 nM | 0.8 nM | 0.6 nM |  | TGF-βR2-Fc (Fc fusion)
3 |  |  |  |  |  | 2.27 nM | … (atezolizumab) (antibody)
